Target: T1, IRAK4 (Homo sapiens, UniProt Q9NWZ3)
T1 sequence (Q9NWZ3 1-460): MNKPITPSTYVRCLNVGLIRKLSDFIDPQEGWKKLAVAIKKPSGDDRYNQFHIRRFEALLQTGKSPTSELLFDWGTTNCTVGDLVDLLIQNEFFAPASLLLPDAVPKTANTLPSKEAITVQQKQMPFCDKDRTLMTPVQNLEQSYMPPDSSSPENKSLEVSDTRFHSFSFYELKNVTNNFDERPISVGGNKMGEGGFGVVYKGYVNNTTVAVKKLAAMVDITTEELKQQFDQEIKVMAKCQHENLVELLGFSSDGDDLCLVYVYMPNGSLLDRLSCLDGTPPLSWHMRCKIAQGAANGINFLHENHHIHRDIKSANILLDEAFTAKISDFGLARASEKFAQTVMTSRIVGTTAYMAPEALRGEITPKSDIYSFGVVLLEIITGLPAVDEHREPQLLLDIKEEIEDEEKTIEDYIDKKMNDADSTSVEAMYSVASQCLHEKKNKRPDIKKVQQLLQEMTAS
Test: mRNA display affinity selection against IRAK4, NGS abundance
Format: binding
Parameters: acids 1-460; NP_057207.2) was purchased from Carna Biosciences; purchased Carna Biosciences (Kobe, Japan)
Conditions: Top100 selection hits, NGS

| Sequence | Library fraction (IRAK4 selection pulldown (+)) | Raw reads (IRAK4 selection pulldown (+)) | Library fraction (IRAK4 selection pulldown (-)) | Raw reads (IRAK4 selection pulldown (-)) |
| --- | --- | --- | --- | --- |
| SMRRQFITWHWT |  |  | 9e-5 | 12 |
| RLFWKRRRYA | 0.0004 | 42 | 0.00016 | 21 |
| STLWNKKIYK | 0.0005 | 54 | 0.00019 | 26 |
| RTYWKRRCYA | 0.0076 | 814 | 0.00332 | 444 |
| SMLFKRRIYK | 0.211 | 22521 | 0.165 | 22079 |
| SLLWKRRMMK | 0.0001 | 11 |  |  |
| AMLWKRRLWR | 0.0005 | 57 | 0.00051 | 68 |
| STRWKRRNYT | 0.0004 | 39 | 0.00016 | 22 |
| SLLWKKRMYK | 0.0009 | 95 | 0.00027 | 36 |
| SVCWKRRNCH | 0.0002 | 24 | 0.00016 | 22 |
| SVLWKRKIHN | 0.0012 | 125 | 0.001 | 137 |
| TQRYRWRNYK | 0.0001 | 9 |  |  |
| RTRWKCKMYH | 0.0002 | 20 |  |  |
| SQLCHRRIYK | 0.0001 | 12 |  |  |
| SLLWKRRVYC | 0.0007 | 78 | 0.00057 | 76 |
| RVLWKKRNYA | 0.0004 | 46 | 0.00019 | 26 |
| SLLWKRRCYN | 0.0038 | 409 | 0.00172 | 230 |
| SIYWKRRRYK | 0.0001 | 11 |  |  |
| STYWKSRIYT | 0.0002 | 23 |  |  |

| Sequence | Library fraction (IRAK4 selection pulldown (+)) | Raw reads (IRAK4 selection pulldown (+)) | Library fraction (IRAK4 selection pulldown (-)) | Raw reads (IRAK4 selection pulldown (-)) |
| --- | --- | --- | --- | --- |
| SMKRQFITWHWT |  |  | 0.376 | 50248 |
| SMLFKRRMYK | 0.0003 | 27 | 0.00019 | 26 |
| RQRWRSRDYA |  |  | 8e-5 | 11 |
| TCLWKRRIYS | 0.0001 | 10 |  |  |
| TMKRIVINWGWG |  |  | 0.0001 | 14 |
| SLLWRKRIYR | 0.003 | 312 | 0.00109 | 146 |
| ALLWRRRNYH | 0.0006 | 61 | 0.00021 | 28 |
| SMLWGRRIYR | 0.0016 | 168 | 0.00036 | 48 |
| TQRWKRRNYT | 0.0013 | 136 | 0.0006 | 80 |
| CQCWNRRNWT | 0.0003 | 35 | 0.00037 | 49 |
| SLRWKNRNHK | 0.0006 | 62 | 0.00013 | 17 |
| SARWRRRNYS |  |  | 0.00011 | 15 |
| SRLWRRRIFQ | 0.0001 | 10 | 9e-5 | 12 |
| GPILYNRRLFV | 0.0002 | 21 | 0.00014 | 19 |
| TLCWRRRNYK | 0.024 | 2567 | 0.011 | 1518 |
| SMKRPFITWHWT |  |  | 9e-5 | 12 |
| SMKRRFITWHWT |  |  | 8e-5 | 11 |
| SILWKKRVWK | 0.016 | 1700 | 0.009 | 1218 |
| ARLWRRRIYQ | 0.0001 | 11 | 0.00049 | 66 |

The remaining lines, values ahead:

| Library fraction (IRAK4 selection pulldown (+)) | Raw reads (IRAK4 selection pulldown (+)) | Library fraction (IRAK4 selection pulldown (-)) | Raw reads (IRAK4 selection pulldown (-)) | Sequence |
| --- | --- | --- | --- | --- |
| 0.0037 | 391 | 0.00143 | 191 | SVLWRKRIYR |
| 0.0004 | 44 | 0.00039 | 52 | RTFWRRRRYH |
| 0.003 | 318 | 0.00139 | 186 | SVLWKKRVWQ |
|  |  | 0.00016 | 21 | SMQRRVIKWTWA |
| 0.0007 | 76 | 0.00043 | 57 | TLLWKRRNWA |
| 0.0028 | 304 | 0.00857 | 1144 | AMSLYWARRRPH |
| 0.010 | 1112 | 0.011 | 1441 | SVLWKRRIAK |
| 0.0011 | 116 | 0.002 | 267 | SQRWRCRNYQ |
| 0.0001 | 14 |  |  | GPLLWNTRIYC |
| 0.0007 | 76 | 0.00053 | 71 | CQRWKRRCYM |
| 0.0006 | 65 | 0.00016 | 21 | SLLWKRRICR |
| 0.013 | 1364 | 0.010 | 1401 | SQRWRNRNYR |
| 0.0019 | 207 | 0.00132 | 176 | TLLWKRRIYK |
| 0.006 | 624 | 0.00431 | 576 | TQRWRARNYK |
| 0.044 | 4704 | 0.026 | 3431 | SLLYKRRIYK |
| 0.0001 | 9 |  |  | TMLWKRRLFR |
| 0.0001 | 15 |  |  | SMLFKRRIYR |
| 0.0009 | 98 | 0.00106 | 142 | RLLWRRRNYA |
| 0.0009 | 93 | 0.00059 | 79 | SQLWNRRLYK |
| 0.0001 | 15 |  |  | MMLWKRRMYK |

| Library fraction (IRAK4 selection pulldown (+)) | Raw reads (IRAK4 selection pulldown (+)) | Library fraction (IRAK4 selection pulldown (-)) | Raw reads (IRAK4 selection pulldown (-)) | Sequence |
| --- | --- | --- | --- | --- |
| 0.005 | 541 | 0.00216 | 289 | SIVWKRRIYR |
| 0.033 | 3569 | 0.020 | 2704 | SVLWKRRIWK |
| 0.0011 | 118 | 0.00041 | 55 | RMLWKRRMWH |
|  |  | 0.115 | 15412 | SMHRRYITWRWT |
| 0.0047 | 498 | 0.00177 | 237 | SMLWKRKIWG |
| 0.0002 | 25 | 0.00025 | 33 | RLLWKRRNYQ |
| 0.0009 | 95 | 0.00032 | 43 | AIRWKNRNYK |
| 0.0009 | 92 | 0.00037 | 49 | SQRYKRRNYK |
|  |  | 0.0001 | 14 | CQRIGRRNYS |
| 0.0001 | 10 |  |  | SMLFKRRVYK |
|  |  | 0.00015 | 20 | SMKRQFITWRWT |
|  |  | 0.00019 | 25 | SMERKAITWLWT |
| 0.007 | 748 | 0.00241 | 322 | TQYWKRRIYN |
|  |  | 9e-5 | 12 | SLRWKRRIWS |
| 0.180 | 19248 | 0.066 | 8762 | SLLWKRRIMK |
| 0.009 | 985 | 0.014 | 1900 | SRLWRRRIYH |
| 0.0002 | 19 |  |  | AQRWRQKCYK |
| 0.0006 | 68 | 0.00016 | 21 | SVFWNRRIYK |
|  |  | 0.00013 | 17 | RLCYKRRNWQ |

From publication PMC10683472, “Deep Learning-Driven Library Design for the De Novo Discovery of Bioactive Thiopeptides” (ACS Central Science, 2023)
